Target: human plasmin (formed from plasminogen incubated with equimolar SAK or RGD-SAK) (human)

Row | Substance | kcat/Km of plasminogen activation by the preformed equimolar RGD-SAK-plasmin complex, monitored with S-2251 [M⁻¹ s⁻¹] | kcat/Km of plasminogen activation by the preformed equimolar SAK-plasmin complex, monitored with S-2251 [M⁻¹ s⁻¹]
1 | RGD-SAK (staphylokinase with K35 replaced by Arg) (from UniProt P68802 28-163) (natural protein) | 37000 | 
2 | staphylokinase (SAK) (from UniProt P68802 28-163) (natural protein) |  | 33000

— paper PMC2194782
